Key:
hERG = hERG (Homo sapiens, UniProt Q12809); test: in vitro; settings: 100% = no change, <100% = inhibition
Outline: (§1)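 Peptides were tested in duplicate at final 20 μM and 200 nM, with concentration set by amino acid analysis, in HEPES-buffered saline. They were applied for at least 5 min to HEK293 or CHO cells transfected with each channel. Currents were expressed as % inhibition, 1-(Ipeptide/Icontrol)×100, or % activation, Ipeptide/Icontrol×100, against a channel-matched reference compound.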

Nav1.5 = Nav1.5 (Homo sapiens, UniProt Q14524); test: in vitro; settings: 100% = no change; for Activity of Nav1.5 with peptide, expressed as a percentage of the reference compound: peptide at 0.2 μM; for Activity of Nav1.5 with peptide (percentage of the reference compound): peptide at 20 μM
Outline: as §1

GABA = test: Ion channel panel (IonWorks Barracuda): GABA; assay type: cell-based; settings: 100% = no change, <100% = inhibition
Outline: as §1

TRPA1 = target: T1, TRPA1 (Homo sapiens, UniProt O75762); test: Ion channel panel (IonWorks Barracuda): TRPA1; assay type: cell-based; settings: 100% = no change, <100% = inhibition
T1 construct: host or cells: HEK293 or CHO
Outline: as §1

Kv2.1 = target: T2, Kv2.1 (Homo sapiens, UniProt Q14721); test: cell-based; settings: 100% = no change, <100% = inhibition
T2 construct: host or cells: HEK293 or CHO
Outline: as §1

Cav2.1 = target: T3, Cav2.1 (Homo sapiens, UniProt O00555); test: cell-based; settings: 100% = no change, <100% = inhibition
T3 construct: host or cells: HEK293 or CHO
Outline: as §1

Cav2.2 = target: T4, Cav2.2 (Homo sapiens, UniProt Q00975); test: cell-based; settings: 100% = no change, <100% = inhibition
T4 construct: host or cells: HEK293 or CHO
Outline: as §1

α3β4 = target: T5, α3β4 (Homo sapiens, UniProt P30926+P32297); test: Ion channel panel (IonWorks Barracuda): α3β4; assay type: cell-based; settings: 100% = no change, <100% = inhibition
T5 construct: host or cells: HEK293 or CHO
Outline: as §1

NR2A = target: T6, NR2A (Homo sapiens, UniProt Q12879); test: Ion channel panel (IonWorks Barracuda): NR2A; assay type: cell-based; settings: 100% = no change, <100% = inhibition
T6 construct: host or cells: HEK293 or CHO
Outline: as §1

Nav1.7 = target: T7, Nav1.7 (Homo sapiens, UniProt Q15858); test: cell-based; assay type: cell-based; settings: 100% = no change; for Activity of Nav1.7 with peptide, expressed as a percentage of the reference compound: peptide at 0.2 μM; for Activity of Nav1.7 with peptide (percentage of the reference compound): peptide at 20 μM
T7 construct: host or cells: HEK293 or CHO

NR2B = target: T8, NR2B (Homo sapiens, UniProt Q13224); test: Ion channel panel (IonWorks Barracuda): NR2B; assay type: cell-based; settings: 100% = no change, <100% = inhibition
T8 construct: host or cells: HEK293 or CHO
Outline: as §1

TRPV1 = target: T9, TRPV1 (Homo sapiens, UniProt Q8NER1); test: Ion channel panel (IonWorks Barracuda): TRPV1; assay type: cell-based; settings: 100% = no change, <100% = inhibition
T9 construct: host or cells: HEK293 or CHO
Outline: as §1

Kir2.1 = target: T10, Kir2.1 (Homo sapiens, UniProt P63252); test: Ion channel panel (IonWorks Barracuda): Kir2.1; assay type: cell-based; settings: 100% = no change, <100% = inhibition
T10 construct: host or cells: HEK293 or CHO
Outline: as §1

Kv1.3 = target: T11, Kv1.3 (Homo sapiens, UniProt P22001); test: cell-based; assay type: cell-based; settings: 100% = no change, <100% = inhibition
T11 construct: host or cells: HEK293 or CHO
Outline: as §1

Kv1.1 = target: T12, Kv1.1 (Homo sapiens, UniProt Q09470); test: cell-based; assay type: cell-based; settings: 100% = no change, <100% = inhibition
T12 construct: host or cells: HEK293 or CHO
Outline: as §1

Kv1.2 = target: T13, Kv1.2 (Homo sapiens, UniProt P16389); test: cell-based; assay type: cell-based; settings: 100% = no change, <100% = inhibition
T13 construct: host or cells: HEK293 or CHO
Outline: as §1

α4β2 = target: T14, α4β2 (Homo sapiens, UniProt P17787+P43681); test: Ion channel panel (IonWorks Barracuda): α4β2; assay type: cell-based; settings: 100% = no change, <100% = inhibition
T14 construct: host or cells: HEK293 or CHO
Outline: as §1

5HT3a = target: T15, 5HT3a (Homo sapiens, UniProt P46098); test: Ion channel panel (IonWorks Barracuda): 5HT3a; assay type: cell-based
T15 construct: host or cells: HEK293 or CHO
T15 sequence (P46098 whole entry, looked up): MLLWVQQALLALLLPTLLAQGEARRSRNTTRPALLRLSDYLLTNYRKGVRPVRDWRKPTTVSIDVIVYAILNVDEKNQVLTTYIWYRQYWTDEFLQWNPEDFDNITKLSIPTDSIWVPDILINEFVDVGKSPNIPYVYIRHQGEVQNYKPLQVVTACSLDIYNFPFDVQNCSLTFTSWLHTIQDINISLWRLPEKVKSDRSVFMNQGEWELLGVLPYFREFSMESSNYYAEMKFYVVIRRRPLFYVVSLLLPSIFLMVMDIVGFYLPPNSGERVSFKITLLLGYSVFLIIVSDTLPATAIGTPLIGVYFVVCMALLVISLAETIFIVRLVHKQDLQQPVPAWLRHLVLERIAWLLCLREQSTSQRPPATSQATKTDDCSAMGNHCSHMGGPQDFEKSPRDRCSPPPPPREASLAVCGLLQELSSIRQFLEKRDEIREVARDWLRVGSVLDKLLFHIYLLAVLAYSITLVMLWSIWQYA
Outline: as §1

[1] = first of two Nav1.5 columns (probably TP1)
[2] = second of two Nav1.5 columns (probably TP2)
[3] = first of two Nav1.7 columns (probably TP1)
[4] = second of two Nav1.7 columns (probably TP2)

Nav1.5, sequence (Q14524 whole entry): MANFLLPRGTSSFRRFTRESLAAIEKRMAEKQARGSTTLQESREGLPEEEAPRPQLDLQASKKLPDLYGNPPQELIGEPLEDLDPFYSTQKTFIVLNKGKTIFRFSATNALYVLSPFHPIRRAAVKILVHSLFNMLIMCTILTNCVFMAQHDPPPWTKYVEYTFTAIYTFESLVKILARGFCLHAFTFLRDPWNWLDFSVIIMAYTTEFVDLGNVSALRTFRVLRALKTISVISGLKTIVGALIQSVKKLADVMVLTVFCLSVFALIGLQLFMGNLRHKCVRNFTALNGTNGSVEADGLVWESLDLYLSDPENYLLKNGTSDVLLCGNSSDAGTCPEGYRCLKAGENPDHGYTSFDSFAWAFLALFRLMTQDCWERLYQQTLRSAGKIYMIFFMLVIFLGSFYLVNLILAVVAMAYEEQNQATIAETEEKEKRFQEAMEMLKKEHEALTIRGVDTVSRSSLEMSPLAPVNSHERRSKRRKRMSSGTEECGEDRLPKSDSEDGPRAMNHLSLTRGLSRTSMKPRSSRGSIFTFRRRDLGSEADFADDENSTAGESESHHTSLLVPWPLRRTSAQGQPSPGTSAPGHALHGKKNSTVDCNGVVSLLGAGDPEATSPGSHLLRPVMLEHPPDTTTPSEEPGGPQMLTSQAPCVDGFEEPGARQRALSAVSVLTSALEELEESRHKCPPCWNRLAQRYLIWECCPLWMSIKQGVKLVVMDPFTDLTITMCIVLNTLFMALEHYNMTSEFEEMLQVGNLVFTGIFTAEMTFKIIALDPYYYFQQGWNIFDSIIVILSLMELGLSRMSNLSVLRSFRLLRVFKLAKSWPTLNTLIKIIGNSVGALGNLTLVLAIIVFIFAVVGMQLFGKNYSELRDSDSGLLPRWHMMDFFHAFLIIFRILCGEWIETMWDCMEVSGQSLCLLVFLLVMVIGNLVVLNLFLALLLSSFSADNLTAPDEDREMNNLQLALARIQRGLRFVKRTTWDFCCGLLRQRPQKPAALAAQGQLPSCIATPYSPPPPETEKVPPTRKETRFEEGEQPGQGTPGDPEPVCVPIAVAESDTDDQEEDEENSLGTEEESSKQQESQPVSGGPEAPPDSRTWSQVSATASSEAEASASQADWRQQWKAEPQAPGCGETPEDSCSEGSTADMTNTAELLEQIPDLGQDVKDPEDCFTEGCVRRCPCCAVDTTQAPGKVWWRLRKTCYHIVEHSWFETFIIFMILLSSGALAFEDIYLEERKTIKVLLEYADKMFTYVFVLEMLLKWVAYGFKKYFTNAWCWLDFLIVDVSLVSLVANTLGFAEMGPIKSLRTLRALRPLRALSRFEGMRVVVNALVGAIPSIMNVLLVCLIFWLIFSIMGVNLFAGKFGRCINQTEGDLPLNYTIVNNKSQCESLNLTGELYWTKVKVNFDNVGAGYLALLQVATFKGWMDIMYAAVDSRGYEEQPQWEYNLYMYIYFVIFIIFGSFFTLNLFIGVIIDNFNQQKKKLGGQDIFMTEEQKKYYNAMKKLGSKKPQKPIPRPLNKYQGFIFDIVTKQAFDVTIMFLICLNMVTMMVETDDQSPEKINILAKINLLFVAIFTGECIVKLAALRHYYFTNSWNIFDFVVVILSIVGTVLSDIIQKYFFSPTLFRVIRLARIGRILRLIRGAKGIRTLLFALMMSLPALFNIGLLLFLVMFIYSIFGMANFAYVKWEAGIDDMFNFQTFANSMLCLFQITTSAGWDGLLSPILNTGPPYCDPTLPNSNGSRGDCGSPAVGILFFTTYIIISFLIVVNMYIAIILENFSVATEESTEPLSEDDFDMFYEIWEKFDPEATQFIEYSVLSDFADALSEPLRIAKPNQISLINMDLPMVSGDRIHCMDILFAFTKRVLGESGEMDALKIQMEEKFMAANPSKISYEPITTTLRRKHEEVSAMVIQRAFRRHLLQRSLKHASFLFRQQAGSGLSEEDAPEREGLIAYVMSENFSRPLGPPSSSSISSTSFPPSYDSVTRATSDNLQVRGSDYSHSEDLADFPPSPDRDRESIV
T7 sequence (Q15858 whole entry): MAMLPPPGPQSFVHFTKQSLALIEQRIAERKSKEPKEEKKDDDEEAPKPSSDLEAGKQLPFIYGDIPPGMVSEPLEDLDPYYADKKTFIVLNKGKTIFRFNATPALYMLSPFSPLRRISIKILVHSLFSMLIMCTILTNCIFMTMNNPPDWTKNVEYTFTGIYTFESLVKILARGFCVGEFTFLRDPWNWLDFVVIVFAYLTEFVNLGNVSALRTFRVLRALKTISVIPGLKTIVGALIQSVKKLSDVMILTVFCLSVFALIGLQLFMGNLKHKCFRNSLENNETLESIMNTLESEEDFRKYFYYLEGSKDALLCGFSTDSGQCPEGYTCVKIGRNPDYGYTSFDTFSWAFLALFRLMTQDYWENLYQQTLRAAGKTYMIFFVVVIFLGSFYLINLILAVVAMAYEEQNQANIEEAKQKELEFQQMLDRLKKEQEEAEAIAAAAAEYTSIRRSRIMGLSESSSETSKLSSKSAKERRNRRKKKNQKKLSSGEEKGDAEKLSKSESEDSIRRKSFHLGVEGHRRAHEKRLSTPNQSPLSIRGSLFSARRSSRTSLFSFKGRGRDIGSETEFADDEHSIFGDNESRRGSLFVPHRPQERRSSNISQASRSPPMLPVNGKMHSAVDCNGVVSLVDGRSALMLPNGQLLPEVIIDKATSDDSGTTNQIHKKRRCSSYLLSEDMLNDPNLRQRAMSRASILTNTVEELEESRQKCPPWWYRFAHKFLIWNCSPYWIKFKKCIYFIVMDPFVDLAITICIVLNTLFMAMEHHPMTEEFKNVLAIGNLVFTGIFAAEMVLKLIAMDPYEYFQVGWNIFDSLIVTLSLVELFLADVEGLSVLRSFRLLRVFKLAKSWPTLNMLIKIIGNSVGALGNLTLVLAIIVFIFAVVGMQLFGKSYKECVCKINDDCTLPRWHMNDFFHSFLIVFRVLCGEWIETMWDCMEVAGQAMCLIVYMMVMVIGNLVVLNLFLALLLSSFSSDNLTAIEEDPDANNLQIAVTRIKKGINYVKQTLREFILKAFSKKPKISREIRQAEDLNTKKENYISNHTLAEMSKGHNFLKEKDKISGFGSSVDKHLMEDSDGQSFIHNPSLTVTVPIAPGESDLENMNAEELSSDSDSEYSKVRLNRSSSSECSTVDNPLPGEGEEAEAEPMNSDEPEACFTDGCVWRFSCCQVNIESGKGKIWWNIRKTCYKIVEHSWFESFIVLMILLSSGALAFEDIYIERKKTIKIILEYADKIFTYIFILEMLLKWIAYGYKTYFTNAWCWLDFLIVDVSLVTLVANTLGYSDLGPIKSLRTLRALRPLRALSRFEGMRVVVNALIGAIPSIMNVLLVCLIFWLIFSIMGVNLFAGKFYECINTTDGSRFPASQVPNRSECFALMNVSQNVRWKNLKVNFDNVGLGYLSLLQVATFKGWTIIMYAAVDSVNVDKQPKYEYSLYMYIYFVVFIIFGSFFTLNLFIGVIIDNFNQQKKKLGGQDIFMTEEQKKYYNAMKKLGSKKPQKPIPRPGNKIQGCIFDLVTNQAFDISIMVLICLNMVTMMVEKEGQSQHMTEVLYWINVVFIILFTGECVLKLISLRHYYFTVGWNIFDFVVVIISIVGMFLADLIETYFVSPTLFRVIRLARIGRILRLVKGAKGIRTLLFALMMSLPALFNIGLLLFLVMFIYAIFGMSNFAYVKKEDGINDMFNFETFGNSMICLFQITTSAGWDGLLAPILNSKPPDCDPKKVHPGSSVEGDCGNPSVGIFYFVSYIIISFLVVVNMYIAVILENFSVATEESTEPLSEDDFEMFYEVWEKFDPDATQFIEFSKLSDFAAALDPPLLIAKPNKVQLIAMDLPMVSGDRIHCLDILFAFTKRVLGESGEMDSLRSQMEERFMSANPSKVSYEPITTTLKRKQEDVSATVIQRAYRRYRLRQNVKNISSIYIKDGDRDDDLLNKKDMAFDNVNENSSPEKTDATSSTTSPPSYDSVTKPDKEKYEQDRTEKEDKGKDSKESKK
T13 sequence (P16389 whole entry): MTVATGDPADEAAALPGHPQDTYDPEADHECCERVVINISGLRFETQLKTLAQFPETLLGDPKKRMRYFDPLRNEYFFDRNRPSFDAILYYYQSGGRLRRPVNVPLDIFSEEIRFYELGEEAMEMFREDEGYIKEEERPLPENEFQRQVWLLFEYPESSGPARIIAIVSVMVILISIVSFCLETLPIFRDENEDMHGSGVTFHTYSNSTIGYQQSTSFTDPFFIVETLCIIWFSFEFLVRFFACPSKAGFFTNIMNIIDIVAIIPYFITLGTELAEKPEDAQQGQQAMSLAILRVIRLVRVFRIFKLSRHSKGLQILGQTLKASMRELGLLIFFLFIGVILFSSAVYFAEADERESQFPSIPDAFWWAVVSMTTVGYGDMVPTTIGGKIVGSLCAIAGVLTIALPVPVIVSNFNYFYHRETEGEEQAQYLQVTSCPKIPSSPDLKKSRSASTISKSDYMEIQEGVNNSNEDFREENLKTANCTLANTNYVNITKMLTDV
T11 sequence (P22001 whole entry): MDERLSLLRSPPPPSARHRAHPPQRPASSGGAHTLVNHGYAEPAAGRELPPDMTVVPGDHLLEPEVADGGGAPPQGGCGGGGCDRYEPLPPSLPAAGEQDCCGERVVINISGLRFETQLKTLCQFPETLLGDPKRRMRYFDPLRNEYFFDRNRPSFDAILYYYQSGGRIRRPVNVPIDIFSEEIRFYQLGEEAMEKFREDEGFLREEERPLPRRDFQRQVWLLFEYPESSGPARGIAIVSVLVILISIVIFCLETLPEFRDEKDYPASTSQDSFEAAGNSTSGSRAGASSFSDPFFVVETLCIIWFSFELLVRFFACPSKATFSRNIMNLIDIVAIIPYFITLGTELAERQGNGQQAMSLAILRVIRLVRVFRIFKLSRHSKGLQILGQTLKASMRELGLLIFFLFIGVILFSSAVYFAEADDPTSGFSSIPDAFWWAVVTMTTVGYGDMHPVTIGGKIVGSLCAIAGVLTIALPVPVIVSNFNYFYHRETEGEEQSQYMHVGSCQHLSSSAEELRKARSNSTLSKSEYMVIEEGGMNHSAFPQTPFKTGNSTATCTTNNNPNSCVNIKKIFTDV

Q: What does the source list for “20 (GSQIDTNVKCSGSSKCVKICIDRYNTRGAKCINGRCTCYP) [compound 20]”?
A: Activity of hERG with peptide, expressed as a percentage of the reference compound (hERG; peptide at 0.2 μM): 90%; Activity of hERG with peptide (percentage of the reference compound) (hERG; peptide at 20 μM): 87%; Activity of Nav1.5 with peptide, expressed as a percentage of the reference compound (Nav1.5; [1]): 103%; Activity of Nav1.5 with peptide, expressed as a percentage of the reference compound (Nav1.5; [2]): 101%; Activity of Nav1.5 with peptide (percentage of the reference compound) (Nav1.5; [1]): 102%; Activity of Nav1.5 with peptide (percentage of the reference compound) (Nav1.5; [2]): 105%; Activity of GABA with peptide, expressed as a percentage of the reference compound (GABA; peptide at 0.2 μM): 109%; Activity of GABA with peptide (percentage of the reference compound) (GABA; peptide at 20 μM): 106%; Activity of TRPA1 with peptide, expressed as a percentage of the reference compound (TRPA1; peptide at 0.2 μM): 114%; Activity of TRPA1 with peptide (percentage of the reference compound) (TRPA1; peptide at 20 μM): 114%; Activity of Kv2.1 with peptide, expressed as a percentage of the reference compound (Kv2.1; peptide at 0.2 μM): 99%; Activity of Kv2.1 with peptide (percentage of the reference compound) (Kv2.1; peptide at 20 μM): 97%; Activity of Cav2.1 with peptide, expressed as a percentage of the reference compound (Cav2.1; peptide at 0.2 μM): 100%; Activity of Cav2.1 with peptide (percentage of the reference compound) (Cav2.1; peptide at 20 μM): 116%; Activity of Cav2.2 with peptide, expressed as a percentage of the reference compound (Cav2.2; peptide at 0.2 μM): 110%; Activity of Cav2.2 with peptide (percentage of the reference compound) (Cav2.2; peptide at 20 μM): 105%; Activity of a3b4 with peptide, expressed as a percentage of the reference compound (α3β4; peptide at 0.2 μM): 103%; Activity of a3b4 with peptide (percentage of the reference compound) (α3β4; peptide at 20 μM): 94%; Activity of NR2A with peptide, expressed as a percentage of the reference compound (NR2A; peptide at 0.2 μM): 98%; Activity of NR2A with peptide (percentage of the reference compound) (NR2A; peptide at 20 μM): 104%; Activity of Nav1.7 with peptide, expressed as a percentage of the reference compound (Nav1.7; [3]): 92%; Activity of Nav1.7 with peptide, expressed as a percentage of the reference compound (Nav1.7; [4]): 59%; Activity of Nav1.7 with peptide (percentage of the reference compound) (Nav1.7; [3]): 81%; Activity of Nav1.7 with peptide (percentage of the reference compound) (Nav1.7; [4]): 95%; Activity of NR2B with peptide, expressed as a percentage of the reference compound (NR2B; peptide at 0.2 μM): 104%; Activity of NR2B with peptide (percentage of the reference compound) (NR2B; peptide at 20 μM): 92%; Activity of TRPV1 with peptide, expressed as a percentage of the reference compound (TRPV1; peptide at 0.2 μM): 109%; Activity of TRPV1 with peptide (percentage of the reference compound) (TRPV1; peptide at 20 μM): 102%; Activity of Kir2.1 with peptide, expressed as a percentage of the reference compound (Kir2.1; peptide at 0.2 μM): 89%; Activity of Kir2.1 with peptide (percentage of the reference compound) (Kir2.1; peptide at 20 μM): 95%; Activity of Kv1.3 with peptide, expressed as a percentage of the reference compound (Kv1.3; peptide at 0.2 μM): 80%; Activity of Kv1.3 with peptide (percentage of the reference compound) (Kv1.3; peptide at 20 μM): 7%; Activity of Kv1.1 with peptide, expressed as a percentage of the reference compound (Kv1.1; peptide at 0.2 μM): 94%; Activity of Kv1.1 with peptide (percentage of the reference compound) (Kv1.1; peptide at 20 μM): 95%; Activity of Kv1.2 with peptide, expressed as a percentage of the reference compound (Kv1.2; peptide at 0.2 μM): 115%; Activity of Kv1.2 with peptide (percentage of the reference compound) (Kv1.2; peptide at 20 μM): 74%; Activity of a4b2 with peptide, expressed as a percentage of the reference compound (α4β2; peptide at 0.2 μM): 113%; Activity of a4b2 with peptide (percentage of the reference compound) (α4β2; peptide at 20 μM): 92%; Activity of 5HT3a with peptide (percentage of the reference compound) (5HT3a): 91%; Activity of 5HT3a with peptide, expressed as a percentage of the reference compound (5HT3a): 96%

— patent publication US20200262877A1, “ION CHANNEL-BINDING PEPTIDES AND METHODS OF USE THEREOF” (priority 2017, published 2020)
